# In patent US20250276077A1 (IMMUNOME, published 2025):
# Substitutions are numbered along the chain they refer to.
# B1: AB-010358 (antibody, mouse IgG2a, V domains shown)
# VH: QVQLQQWGAGLLKPSETLSLTCAVYGGSFSDYYWSWIRQPPGKGLEWIGEINHRGSINYNNYNPSLKSRVTISVDTSKNQFSLKLSSVTAADTAVYYCAKPLRPHCTNGVCYSGDAFDIWGQGTMVTVAS
# VL: SYVLTQPPSVSVAPGQTARITCGGNNIGSKNVHWYQQKPGQAPVLVVYDDSDRPSGIPERFSGSNSGNTATLTISRVEAGDEADYYCQVWDSSSDHLVFGGGTKLTVL
# B2: AB-010359 (antibody, V domains shown)
# VH: B1 VH
# VL: B1 VL with L97V
# B3: AB-010693 (antibody, V domains shown)
# VH: B1 VH with D31G, T107I
# VL: B1 VL with S29Y, L97V
# B4: AB-010685 (antibody, V domains shown)
# VH: B1 VH with D31G, T107I
# VL: B1 VL with S29Y, R60Q, S92H, L97V
# B5: AB-010692 (antibody, V domains shown)
# VH: B1 VH with D31G
# VL: B1 VL with G23R, S92H, L97V
# B6: AB-010678 (antibody, V domains shown)
# VH: B1 VH with D31G
# VL: B1 VL with G23R, R60Q, S92H, L97V
# B7: AB-010665 (antibody, V domains shown)
# VH: B1 VH with T107I
# VL: B1 VL with S29Y, R60Q, L97V
# B8: AB-010691 (antibody, V domains shown)
# VH: B1 VH with D31G
# VL: B1 VL with G23R, K30M, L97V
# B9: AB-010701 (antibody, V domains shown)
# VH: B1 VH with D31G
# VL: B1 VL with S93E, L97V
# B10: AB-010663 (antibody, V domains shown)
# VH: B1 VH
# VL: B1 VL with G23R, K30M, R60Q, L97V
# B11: AB-010696 (antibody, V domains shown)
# VH: B1 VH with D31G, T107I
# VL: B1 VL with K30M, L97V
# B12: AB-010697 (antibody, V domains shown)
# VH: B1 VH with D31G
# VL: B1 VL with K30M, S92H, L97V
# B13: AB-010673 (antibody, V domains shown)
# VH: B1 VH
# VL: B1 VL with R60Q, S93E, L97V
# B14: AB-010668 (antibody, V domains shown)
# VH: B1 VH with T107I
# VL: B1 VL with K30M, R60Q, L97V
# B15: AB-010669 (antibody, V domains shown)
# VH: B1 VH
# VL: B1 VL with K30M, R60Q, S92H, L97V
# B16: AB-010680 (antibody, V domains shown)
# VH: B1 VH with D31G
# VL: B1 VL with S29Y, K30M, R60Q, L97V
# B17: AB-010666 (antibody, V domains shown)
# VH: B1 VH
# VL: B1 VL with S29Y, K30M, R60Q, L97V
# B18: AB-010688 (antibody, V domains shown)
# VH: B1 VH with D31G
# VL: B1 VL with S29Y, R60Q, S93E, L97V
# B19: AB-010700 (antibody, V domains shown)
# VH: B1 VH with D31G
# VL: B1 VL with S93R, L97V
# B20: AB-010671 (antibody, V domains shown)
# VH: B1 VH with T107I
# VL: B1 VL with S29Y, R60Q, S92H, L97V
# B21: AB-010698 (antibody, V domains shown)
# VH: B1 VH with D31G, T107I
# VL: B1 VL with S92H, L97V
# B22: AB-010690 (antibody, V domains shown)
# VH: B1 VH with D31G
# VL: B1 VL with G23R, S29Y, L97V
# B23: AB-010679 (antibody, V domains shown)
# VH: B1 VH with D31G, T107I
# VL: B1 VL with S29Y, R60Q, L97V
# B24: AB-010664 (antibody, V domains shown)
# VH: B1 VH
# VL: B1 VL with G23R, R60Q, S92H, L97V
# B25: AB-010682 (antibody, V domains shown)
# VH: B1 VH with D31G, T107I
# VL: B1 VL with K30M, R60Q, L97V
# B26: AB-010695 (antibody, V domains shown)
# VH: B1 VH with D31G
# VL: B1 VL with S29Y, S92H, L97V
# B27: AB-010694 (antibody, V domains shown)
# VH: B1 VH with D31G
# VL: B1 VL with S29Y, K30M, L97V
# B28: AB-010689 (antibody, V domains shown)
# VH: B1 VH with D31G, T107I
# VL: B1 VL with G23R, L97V
# B29: AB-010674 (antibody, V domains shown)
# VH: B1 VH
# VL: B1 VL with S29Y, R60Q, S93E, L97V
# B30: AB-010681 (antibody, V domains shown)
# VH: B1 VH with D31G
# VL: B1 VL with S29Y, R60Q, S92H, L97V
# B31: AB-010670 (antibody, V domains shown)
# VH: B1 VH with T107I
# VL: B1 VL with R60Q, S92H, L97V
# B32: AB-010672 (antibody, V domains shown)
# VH: B1 VH
# VL: B1 VL with R60Q, S93R, L97V
# B33: AB-010683 (antibody, V domains shown)
# VH: B1 VH with D31G
# VL: B1 VL with K30M, R60Q, S92H, L97V
# B34: AB-010687 (antibody, V domains shown)
# VH: B1 VH with D31G
# VL: B1 VL with R60Q, S93E, L97V
# B35: AB-010686 (antibody, V domains shown)
# VH: B1 VH with D31G
# VL: B1 VL with R60Q, S93R, L97V
# B36: AB-010667 (antibody, V domains shown)
# VH: B1 VH
# VL: B1 VL with S29Y, R60Q, S92H, L97V
# B37: AB-010702 (antibody, V domains shown)
# VH: B1 VH with D31G
# VL: B1 VL with S29Y, S93E, L97V
# B38: AB-010661 (antibody, V domains shown)
# VH: B1 VH with T107I
# VL: B1 VL with G23R, R60Q, L97V
# B39: AB-010677 (antibody, V domains shown)
# VH: B1 VH with D31G
# VL: B1 VL with G23R, K30M, R60Q, L97V
# B40: AB-010684 (antibody, V domains shown)
# VH: B1 VH with D31G, T107I
# VL: B1 VL with R60Q, S92H, L97V
# B41: AB-010662 (antibody, V domains shown)
# VH: B1 VH
# VL: B1 VL with G23R, S29Y, R60Q, L97V
# B42: AB-010676 (antibody, V domains shown)
# VH: B1 VH with D31G
# VL: B1 VL with G23R, S29Y, R60Q, L97V
# B43: AB-010675 (antibody, V domains shown)
# VH: B1 VH with D31G, T107I
# VL: B1 VL with G23R, R60Q, L97V
# Target: T1, Human EphA2 (ephrin receptor A2) on cells (human, UniProt P29317 25-976)
# Test: cell-based or functional assay
# T1 sequence (P29317 25-976): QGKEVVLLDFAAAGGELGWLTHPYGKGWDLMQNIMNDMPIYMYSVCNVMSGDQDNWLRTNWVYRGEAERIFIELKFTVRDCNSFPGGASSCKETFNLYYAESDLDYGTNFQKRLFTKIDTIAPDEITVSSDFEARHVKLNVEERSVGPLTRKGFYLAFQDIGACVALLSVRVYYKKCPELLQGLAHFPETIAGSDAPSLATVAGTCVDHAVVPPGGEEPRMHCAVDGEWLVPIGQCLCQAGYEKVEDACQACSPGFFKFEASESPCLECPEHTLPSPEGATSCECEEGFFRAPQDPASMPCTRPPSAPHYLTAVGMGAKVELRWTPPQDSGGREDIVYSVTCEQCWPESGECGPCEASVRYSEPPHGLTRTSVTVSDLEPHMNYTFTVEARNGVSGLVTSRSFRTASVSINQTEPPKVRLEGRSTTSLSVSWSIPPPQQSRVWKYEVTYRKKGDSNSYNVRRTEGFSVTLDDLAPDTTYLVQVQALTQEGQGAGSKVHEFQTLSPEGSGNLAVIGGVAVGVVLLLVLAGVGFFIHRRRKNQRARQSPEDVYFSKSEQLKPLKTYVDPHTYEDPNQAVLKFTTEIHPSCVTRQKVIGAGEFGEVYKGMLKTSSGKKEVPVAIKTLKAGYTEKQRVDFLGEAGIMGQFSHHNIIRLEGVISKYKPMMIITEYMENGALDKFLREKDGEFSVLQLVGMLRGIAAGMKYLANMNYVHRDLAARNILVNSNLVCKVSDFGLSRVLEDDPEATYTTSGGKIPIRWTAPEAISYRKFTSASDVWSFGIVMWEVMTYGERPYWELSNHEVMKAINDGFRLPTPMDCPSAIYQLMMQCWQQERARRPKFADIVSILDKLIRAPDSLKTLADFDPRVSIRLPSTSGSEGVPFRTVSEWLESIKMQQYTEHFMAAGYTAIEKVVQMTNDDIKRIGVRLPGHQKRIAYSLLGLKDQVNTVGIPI
ADCC EC50,ADCC Fold-improved (against AB-008873),Binder
73.3 nM,0.47 fold,B1
25.3 nM,1.38 fold,B2

# Target: T1, Human EphA2 (ephrin receptor A2) on …
# Test: cell-based or functional assay
# Remark: another data set of the same source
"ADCC - EC50 (nM), Trial 1, A549","ADCC - EC50 (nM), Trial 2, A549",Binder
0.15 nM,–,B3
< 0.03 nM,0.0057 nM,B4
0.21 nM,–,B5
~0.14 nM,0.047 nM,B6
~0.23 nM,0.14 nM,B7
2.2 nM,–,B8
3 nM,–,B9
4.7 nM,–,B10
1.9 nM,–,B11
0.3 nM,–,B12
3.9 nM,–,B13
3.7 nM,–,B14
0.44 nM,–,B15
~0.081 nM,0.031 nM,B16
~0.19 nM,0.16 nM,B17
~0.052 nM,0.032 nM,B18
9.5 nM,–,B19
< 0.03 nM,0.0064 nM,B20
0.23 nM,–,B21
0.19 nM,–,B22
~0.15 nM,0.04 nM,B23

"ADCC - EC50 (nM), Trial 1, A549","ADCC - EC50 (nM), Trial 2, A549",Binder
0.54 nM,–,B24
3.2 nM,–,B25
~0.021 nM,0.0096 nM,B26
0.14 nM,–,B27
2.5 nM,–,B28
~0.13 nM,0.1 nM,B29
< 0.03 nM,0.0079 nM,B30
0.36 nM,–,B31
12.4 nM,–,B32
~0.14 nM,0.046 nM,B33
2.8 nM,–,B34
6.4 nM,–,B35
< 0.03 nM,0.012 nM,B36
0.065 nM,–,B37
5.7 nM,–,B38
1.6 nM,–,B39
~0.14 nM,0.048 nM,B40
0.57 nM,–,B41
~0.1 nM,0.039 nM,B42
1.5 nM,–,B43
